Measured values published in publication PMC10783494, “A conserved protein inhibitor brings under check the activity of RNase E in cyanobacteria”.

Experiments:
[1] = molecular target: RneN412, the catalytic region of Anabaena RNase E (1-412 aa) (Anabaena PCC 7120)
[2] = molecular target: RneN396, the catalytic core of Anabaena RNase E (1-396 aa) (Anabaena PCC 7120); assay: SPR; Biacore, 25°C, PBS pH 7.4; RneN396 (2 uM) immobilized on a streptavidin-coated sensor chip; RebA injected at 0-1000 nM; steady-state affinity
[3] = molecular target: RneN396, the catalytic core of Anabaena RNase E (1-396 aa) (Anabaena PCC 7120); assay: native gel or EMSA; RneN396, RebA and their mixture incubated for 30 min and separated on a native gel; the band of the complex excised and analysed by SDS-PAGE beside defined molar ratios, bands quantified with ImageJ
RebA = RebA (Anabaena PCC 7120, UniProt A0ABR7ZDZ7 1-423); assay: EMSA; RebA up to 50-fold molar excess; 2 mM EDTA; 20 mM Tris-HCl pH 8.0, 200 mM NaCl, 0.1 mM DTT, 2 mM EDTA, 5% glycerol, 1 mg/ml BSA; 30 min at 30 C; 5% native PAGE at 4 C; details: protein: recombinant; tags: N-terminal Strep tag; label: 3' FAM
[4] = molecular target: T1, RneN396, the catalytic core of Anabaena RNase E (1-396 aa) (Anabaena PCC 7120); assay: BLI
T1 chain: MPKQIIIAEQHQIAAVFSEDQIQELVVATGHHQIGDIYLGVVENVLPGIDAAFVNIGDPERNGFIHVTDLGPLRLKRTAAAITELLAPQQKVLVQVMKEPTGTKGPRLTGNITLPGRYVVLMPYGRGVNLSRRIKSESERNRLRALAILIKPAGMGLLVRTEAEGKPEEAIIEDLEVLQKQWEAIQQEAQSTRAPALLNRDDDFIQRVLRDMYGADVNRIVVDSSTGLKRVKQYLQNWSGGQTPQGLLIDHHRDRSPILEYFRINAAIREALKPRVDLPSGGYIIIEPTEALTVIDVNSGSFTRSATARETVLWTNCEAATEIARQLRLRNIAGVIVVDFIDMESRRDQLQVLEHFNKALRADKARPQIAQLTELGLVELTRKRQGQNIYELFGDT

full-length RebA bearing an N-terminal Strep tag (recombinant) (natural protein)
cleavage of 5′ p-LU13-FAM by RneN412 (0.4 nM) with increasing RebA: ratio of RebA to RneN412 for half-inhibition (RebA:RneN412 ratio) [1]: 1 | cleavage of 5′ p-LU13-FAM by RneN412 with increasing RebA (up to a RebA:RneN412 ratio of 4:1): drop of activity [1]: 90% | Kd [2]: 10.3 nM | stoichiometry N [3]: 1 RneN396:RebA

GAGACAGUAUUUG (ssRNA, 5' monophosphate) [5' p-LU13-FAM]
binding result (RebA): no binding

B1: full-length RebA bearing an N-terminal Strep tag (recombinant) (natural protein)
chain: MRKLTNSDKQEILKLYRETAETTSTLAERYDVSNSTISRLLKSTLPEDEYEFLVSLKRAARTPEGRAQVSYDQIPFVGQPEEAPVISTQKVELPEPITKPEPSRVEDKPTPVIRKGRQAKPAPLPEENPQPLLAEEEKPTPVIRRGRQAKPAPLPEEEKPTPVIRKARQAKPEFFAEEEEKPTPVIRKARQAKPEFFAEEEEKPTPVIRRVRRRSASEEEDREPIARQLEIPVGKPQEIISVSSPSLEDETAEVTPMGYAPPQVIAEMLGEDLLDESEDLDDLEEDLDEDLDEEDYEDEEDDLEEARPLVTRRRFGDAAVQVLPLSVASLPKTCYLVIDRSSELITRPLKDFGDLGQIPSLETQQRTLPIFDNHRVAKRFSTKRDRVIKVPDSRMLHKARTHLQAKGITRLLIDGQVYSLSLV
koff [4]: 0.000112 s⁻¹
